This test has as its target Neurotensin (NTS) (UniProt P30990 151-163). As to the kind of experiment: cell-based or functional assay.

B1: NTSp27-7.4 (antibody, V domains shown)
VH: DVKLVESGGGLVKLGGSLKLSCAASGFTFSGYYMSWVRQTPEKRLELVAAINNYGDNTNYPDTVKGRFSVSRDNAKNTLYLEMNSLKSEDTALYYCARLANYANQRGAMDYWGQGTSVTVSS
VL: DIQMTHTTSSLSASLGDRVTISCRASQDIANYLNWYQQKPDGTVTLLIYYTSRLHSGVPSRFSGSGSGTDYSLTINNLDQEDIATYFCQQGYTLPPTFGGGTKLEIK
As to B1, the “apoptosis of A2780 cells (Annexin V-FITC/PI, flow cytometry), fold increase relative to control cells” value was found to be 2.5 fold and the “apoptosis of SKOV3 cells (Annexin V-FITC/PI, flow cytometry), fold increase relative to control cells” value is 8.2 fold.

The record behind these values is patent US20170233470A1 (INSERM INSTITUT NATIONAL DE LA SANT ET DE LA RECHERCHE M …, published 2017).
